In patent US20180030137A1 (ADURO BIOTECH HOLDINGS EUROPE B V, published 2018):

Experiments:
[1] = molecular target: T1, Human PD-1 (Swiss-Prot entry Q15116), full length, on cells (human, UniProt Q15116 21-288); test: CELISA on CHO-K1.hPDCD1 cells
T1 construct: Full length open reading frame of hPD-1 stably expressed on CHO-K1 cells; also endogenous PD-1 on CD3/CD28-stimulated human CD3+ T cells and PD-1 on transfected Jurkat cells; also called hPD-1; hPDCD1
Method: (§1) To further characterize these mutant hPD-1 antibodies they were tested for binding to hPD-1 in CELISA format using CHO-K1 cells (American Type Culture Collection, Manassas, Va.), stably transfected with cDNA encoding the full length open reading frame of hPDCD1 (hPD-1), subcloned into the pCI-neo vector (Promega). Parental CHO-K1 or CHO-K1.hPDCD1 cells were seeded in culture medium (DMEM-F12 (Gibco) with 10% Fetal Bovine Serum (Hyclone) and Pen/Strep (Gibco)) in tissue culture plates and incubated for 48 hours at 37° C. Subsequently culture medium was removed and cells were incubated for 1 hour at 37° C. with the mutant hPD-1 antibodies (10 μg/ml (=66 nM) and dilutions thereof). Next, cells were washed with Phosphate-Buffered Saline/0.05% Tween (PBST) and incubated for 1 hour at 37° C. with Goat-anti-human IgG-HRP (Southern Biotech). Subsequently, cells were washed 3 times with PBST and anti-hPD1 immunoreactivity was visualized with 100 al TMB Stabilized Chromagen (Invitrogen). Reactions were stopped with 100 al 0.5 M H2SO4 and absorbances were read at 450 and 610 nm. […] Blockade of hPD-L1 binding by the mutant hPD-1 antibodies was tested in CELISA format. Parental CHO-K1 or CHO-K1.hPDCD1 cells were seeded in tissue culture plates and incubated for 72 hours at 37° C. in culture medium. Subsequently culture medium was removed and cells were incubated for 1 hour with the mutant hPD-1 antibodies (10 μg/ml (=66 nM) and dilutions thereof) at 37° C. […] Cells were then washed three times with PBST followed by addition of Streptavidin-HRP conjugate on the cells, which was incubated for 1 hour at 37° C. […] Reactions were stopped with 100 al 0.5 M H2SO4 and absorbances were read at 450 and 610 nm. Calculated IC50 values in Table 12 for the blockade of hPD-L1 represent the concentration at which half of the inhibition is observed.

[2] = molecular target: T1, Human PD-1 (Swiss-Prot entry Q15116), …; test: CELISA on CHO-K1.hPDCD1 cells; blocking of biotinylated hPD-L1 Fc
Method: as §1

T1 sequence (Q15116 21-288, one chain of several): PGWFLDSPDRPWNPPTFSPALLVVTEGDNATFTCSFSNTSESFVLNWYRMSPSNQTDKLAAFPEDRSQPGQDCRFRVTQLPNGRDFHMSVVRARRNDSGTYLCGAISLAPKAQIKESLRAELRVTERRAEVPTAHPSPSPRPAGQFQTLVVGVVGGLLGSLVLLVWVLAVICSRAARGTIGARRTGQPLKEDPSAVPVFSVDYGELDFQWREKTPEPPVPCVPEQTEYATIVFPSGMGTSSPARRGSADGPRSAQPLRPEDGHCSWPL

Row | Binder | EC50 [1] [nM] | IC50 [2] [nM]
1 | hPD1.29H5_A9P_I28T_T31S_L4 (antibody, V domains shown, Mutant of hPD1.29H5L4 (human IgG4 S241P kappa format of the parent)) VH: EVQLVQSGPEVKKPGASVKVSCKASGYTFTSYYIHWVKQAPGKGLEWIGWIFPGDVSTQYNEKFQDKATITVDKSASTAYMQLSSLRSEDTAVYYCTREAYDYAVYWGQGTLVTVSS VL: DIQMTQAPSSLSASVGDRVTITCKASQNVDTNVAWFQQKPGKAPKSLIFSASYRYSGVPSRFSGSGSGTDFTLTISSLQPEDFATYYCQQYNNYPFTFGGGTKLEIK | 0.3 | 1.2
2 | hPD1.29H5_I28D_L4 (antibody, V domains shown, Mutant of hPD1.29H5L4 (human IgG4 S241P kappa format of the parent)) VH: EVQLVQSGAEVKKPGASVKVSCKASGYDFTTYYIHWVKQAPGKGLEWIGWIFPGDVSTQYNEKFQDKATITVDKSASTAYMQLSSLRSEDTAVYYCTREAYDYAVYWGQGTLVTVSS VL: DIQMTQAPSSLSASVGDRVTITCKASQNVDTNVAWFQQKPGKAPKSLIFSASYRYSGVPSRFSGSGSGTDFTLTISSLQPEDFATYYCQQYNNYPFTFGGGTKLEIK | 0.3 | 1.6
3 | hPD1.29H5_A9P_K12V_L4 (antibody, V domains shown, Mutant of hPD1.29H5L4 (human IgG4 S241P kappa format of the parent)) VH: EVQLVQSGPEVVKPGASVKVSCKASGYIFTTYYIHWVKQAPGKGLEWIGWIFPGDVSTQYNEKFQDKATITVDKSASTAYMQLSSLRSEDTAVYYCTREAYDYAVYWGQGTLVTVSS VL: DIQMTQAPSSLSASVGDRVTITCKASQNVDTNVAWFQQKPGKAPKSLIFSASYRYSGVPSRFSGSGSGTDFTLTISSLQPEDFATYYCQQYNNYPFTFGGGTKLEIK | 0.4 | 1.3
4 | hPD1.29H5_A9P_K12V_I28T_T31S_L4 (antibody, V domains shown, Mutant of hPD1.29H5L4 (human IgG4 S241P kappa format of the parent)) VH: EVQLVQSGPEVVKPGASVKVSCKASGYTFTSYYIHWVKQAPGKGLEWIGWIFPGDVSTQYNEKFQDKATITVDKSASTAYMQLSSLRSEDTAVYYCTREAYDYAVYWGQGTLVTVSS VL: DIQMTQAPSSLSASVGDRVTITCKASQNVDTNVAWFQQKPGKAPKSLIFSASYRYSGVPSRFSGSGSGTDFTLTISSLQPEDFATYYCQQYNNYPFTFGGGTKLEIK | 0.3 | 1.2
5 | hPD1.29H5_I28D_T30D_L4 (antibody, V domains shown, Mutant of hPD1.29H5L4 (human IgG4 S241P kappa format of the parent)) VH: EVQLVQSGAEVKKPGASVKVSCKASGYDFDTYYIHWVKQAPGKGLEWIGWIFPGDVSTQYNEKFQDKATITVDKSASTAYMQLSSLRSEDTAVYYCTREAYDYAVYWGQGTLVTVSS VL: DIQMTQAPSSLSASVGDRVTITCKASQNVDTNVAWFQQKPGKAPKSLIFSASYRYSGVPSRFSGSGSGTDFTLTISSLQPEDFATYYCQQYNNYPFTFGGGTKLEIK | 0.4 | 1.6
6 | hPD1.29H5_A9P_L4 (antibody, V domains shown, Mutant of hPD1.29H5L4 (human IgG4 S241P kappa format of the parent)) VH: EVQLVQSGPEVKKPGASVKVSCKASGYIFTTYYIHWVKQAPGKGLEWIGWIFPGDVSTQYNEKFQDKATITVDKSASTAYMQLSSLRSEDTAVYYCTREAYDYAVYWGQGTLVTVSS VL: DIQMTQAPSSLSASVGDRVTITCKASQNVDTNVAWFQQKPGKAPKSLIFSASYRYSGVPSRFSGSGSGTDFTLTISSLQPEDFATYYCQQYNNYPFTFGGGTKLEIK | 0.4 | 1.4

Continued, values first:

Row | EC50 [1] [nM] | IC50 [2] [nM] | Binder
7 | 0.3 | 1.1 | hPD1.29H5_I28T_T31S_L4 (antibody, V domains shown, Mutant of hPD1.29H5L4 (human IgG4 S241P kappa format of the parent)) VH: EVQLVQSGAEVKKPGASVKVSCKASGYTFTSYYIHWVKQAPGKGLEWIGWIFPGDVSTQYNEKFQDKATITVDKSASTAYMQLSSLRSEDTAVYYCTREAYDYAVYWGQGTLVTVSS VL: DIQMTQAPSSLSASVGDRVTITCKASQNVDTNVAWFQQKPGKAPKSLIFSASYRYSGVPSRFSGSGSGTDFTLTISSLQPEDFATYYCQQYNNYPFTFGGGTKLEIK
8 | 0.4 | 1.3 | hPD1.29H5_I28D_Y32D_L4 (antibody, V domains shown, IgG4 S241P kappa format of the parent) VH: EVQLVQSGAEVKKPGASVKVSCKASGYDFTTDYIHWVKQAPGKGLEWIGWIFPGDVSTQYNEKFQDKATITVDKSASTAYMQLSSLRSEDTAVYYCTREAYDYAVYWGQGTLVTVSS VL: DIQMTQAPSSLSASVGDRVTITCKASQNVDTNVAWFQQKPGKAPKSLIFSASYRYSGVPSRFSGSGSGTDFTLTISSLQPEDFATYYCQQYNNYPFTFGGGTKLEIK
9 | 0.4 | 1.7 | hPD1.29H5_T31D_L4 (antibody, V domains shown, Mutant of hPD1.29H5L4 (human IgG4 S241P kappa format of the parent)) VH: EVQLVQSGAEVKKPGASVKVSCKASGYIFTDYYIHWVKQAPGKGLEWIGWIFPGDVSTQYNEKFQDKATITVDKSASTAYMQLSSLRSEDTAVYYCTREAYDYAVYWGQGTLVTVSS VL: DIQMTQAPSSLSASVGDRVTITCKASQNVDTNVAWFQQKPGKAPKSLIFSASYRYSGVPSRFSGSGSGTDFTLTISSLQPEDFATYYCQQYNNYPFTFGGGTKLEIK
10 | 0.3 | 1.2 | hPD1.29H5_K12V_I28T_T31S_L4 (antibody, V domains shown, Mutant of hPD1.29H5L4 (human IgG4 S241P kappa format of the parent)) VH: EVQLVQSGAEVVKPGASVKVSCKASGYTFTSYYIHWVKQAPGKGLEWIGWIFPGDVSTQYNEKFQDKATITVDKSASTAYMQLSSLRSEDTAVYYCTREAYDYAVYWGQGTLVTVSS VL: DIQMTQAPSSLSASVGDRVTITCKASQNVDTNVAWFQQKPGKAPKSLIFSASYRYSGVPSRFSGSGSGTDFTLTISSLQPEDFATYYCQQYNNYPFTFGGGTKLEIK
11 | 0.4 | 1.4 | hPD1.29H5_I28D_T31D_L4 (antibody, V domains shown, Mutant of hPD1.29H5L4 (human IgG4 S241P kappa format of the parent)) VH: EVQLVQSGAEVKKPGASVKVSCKASGYDFTDYYIHWVKQAPGKGLEWIGWIFPGDVSTQYNEKFQDKATITVDKSASTAYMQLSSLRSEDTAVYYCTREAYDYAVYWGQGTLVTVSS VL: DIQMTQAPSSLSASVGDRVTITCKASQNVDTNVAWFQQKPGKAPKSLIFSASYRYSGVPSRFSGSGSGTDFTLTISSLQPEDFATYYCQQYNNYPFTFGGGTKLEIK
12 | 0.3 | 1.6 | hPD1.29H5_T30D_L4 (antibody, V domains shown, Mutant of hPD1.29H5L4 (human IgG4 S241P kappa format of the parent)) VH: EVQLVQSGAEVKKPGASVKVSCKASGYIFDTYYIHWVKQAPGKGLEWIGWIFPGDVSTQYNEKFQDKATITVDKSASTAYMQLSSLRSEDTAVYYCTREAYDYAVYWGQGTLVTVSS VL: DIQMTQAPSSLSASVGDRVTITCKASQNVDTNVAWFQQKPGKAPKSLIFSASYRYSGVPSRFSGSGSGTDFTLTISSLQPEDFATYYCQQYNNYPFTFGGGTKLEIK
13 | 0.4 | 1.4 | hPD1.29H5_K12V_L4 (antibody, V domains shown, Mutant of hPD1.29H5L4 (human IgG4 S241P kappa format of the parent)) VH: EVQLVQSGAEVVKPGASVKVSCKASGYIFTTYYIHWVKQAPGKGLEWIGWIFPGDVSTQYNEKFQDKATITVDKSASTAYMQLSSLRSEDTAVYYCTREAYDYAVYWGQGTLVTVSS VL: DIQMTQAPSSLSASVGDRVTITCKASQNVDTNVAWFQQKPGKAPKSLIFSASYRYSGVPSRFSGSGSGTDFTLTISSLQPEDFATYYCQQYNNYPFTFGGGTKLEIK
14 | 0.3 | 1.4 | hPD1.29H5_Y32D_L4 (antibody, V domains shown, IgG4 S241P kappa format of the parent) VH: EVQLVQSGAEVKKPGASVKVSCKASGYIFTTDYIHWVKQAPGKGLEWIGWIFPGDVSTQYNEKFQDKATITVDKSASTAYMQLSSLRSEDTAVYYCTREAYDYAVYWGQGTLVTVSS VL: DIQMTQAPSSLSASVGDRVTITCKASQNVDTNVAWFQQKPGKAPKSLIFSASYRYSGVPSRFSGSGSGTDFTLTISSLQPEDFATYYCQQYNNYPFTFGGGTKLEIK
